“Also recorded” adds a separate entry of the source. Where no end group is shown, it is not given here. The star is where a group is joined. Biotin = O=C1N[C@H]2[C@H](CS[C@H]2CCCCC(=O)*)N1
B1: ZTS-361: felinized anti IL-31 15H05 mAb, FEL_15H05_VH1 with Feline_HC_AlleleA_1, FEL-15H05-VL1_FW2 light chain (antibody, V domains shown)
VH: QVLLVQSGAEVRTPGASVKIFCKASGYSFTSYTIHWLRQAPAQGLEWMGNINPTSGYTENNQRFKDRLTLTADTSTNTAYMELSSLRSADTAMYYCARWGFKYDGEWSFDVWGAGTTVTVSS
VL: EIQMTQSPSSLSASPGDRVTITCRASQGISIWLSWYQQKPGNIPKVLINKASNLHIGVPSRFSGSGSGTDFTLTISSLEPEDAATYYCLQSQTYPLTFGGGTKLEIK
modifications: feline constant regions joined; Felinized variable heavy mAb sequence, from Mus musculus and Felis catus; Felinized variable light mAb sequence, from Mus musculus and Felis catus
B2: 11E12: mouse-derived anti IL-31 antibody previously described in U.S. Pat. No. 8,790,651; for comparison (antibody, V domains shown)
VH: QVQLQQSGAELVKPGASVKLSCKASGYTFKYYDINWVRQRPEQGLEWIGWIFPGDGGTKYNETFKGKATLTTDKSSSTAYMQLSRLTSEDSAVYFCARGGTSVIRDAMDYWGQGTSVTVSS
VL: DIVLTQSPASLAVSLGQRATISCRASESVDNYGISFMHWYQQKPGQPPKLLIYRASNLESGIPARFSGSGSRTDFTLTINPVETDDVATYYCQQSNKDPLTFGAGTKLELK

Experiments:
[1] = tested on: mouse anti equine IL-31 serum; assay: Bio-layer interferometry binding of mouse serum to immobilized equine IL-31 mimotopes
Source text: Mice were immunized with full length equine IL-31 (SEQ ID NO: 165; Equine_IL-31), the corresponding nucleotide sequence for which is (SEQ ID NO: 166; […]) conjugated to CRM-197 like the method described in section 1.6 of this application. Biotin conjugated peptides representing three epitope regions described herein were designed for use with a bio-layer interferometry binding assay (Octet, ForteBio). Description of these peptides are described in FIG. 21A. Each peptide contains an N terminal biotin with a three-amino acid spacer sequence (GSG) annotated with bold underlined text in the figure. The 15H05 mimotope includes two terminal cysteine residues (also highlighted in bold and underlined) to facilitate cyclization by a disulphide bond. […] Control mouse serum was from a mouse vaccinated with an unrelated protein. The response, described here as the amplitude of the signal following 120 seconds of antiserum association, is represented on the y axis of the figure. […] In addition, the ability of these IL-31 mimotopes to be recognized by those immune responses can be assessed through binding. […] Like presentation of mimotopes described herein which elicit immune responses to full length protein, this experiment describes a reciprocal validation of these epitopes where the immune response is validated from the protein against the mimotope.

[2] = target: feline IL-31; assay: Affinity of anti-IL-31 antibodies by surface plasmon resonance (Biacore), feline IL-31 surface; format: binding; details: IL-31 conjugated to the surface (FIG. 2)
Method in brief: (§1)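 IL-31 amine-coupled (NHS/EDC) at 5 μg/mL directly onto the SPR chip, quenched with ethanolamine; candidate mAbs flowed over as analyte. KD from 1:1 model fits; values below 1×10^−11 M are under the instrument's lower quantitation limit.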
Target sequence in this assay (as listed by the source): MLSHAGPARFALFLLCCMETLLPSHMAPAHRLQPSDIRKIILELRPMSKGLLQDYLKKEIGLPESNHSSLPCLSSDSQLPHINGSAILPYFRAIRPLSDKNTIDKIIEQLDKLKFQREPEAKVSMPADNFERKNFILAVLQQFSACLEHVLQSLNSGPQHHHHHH

[3] = tested on: feline IL-31; assay: Cat pruritus challenge model, subcutaneous antibody then IL-31 challenge; format: in vivo; details: cats, 4 mg/kg subcutaneously day 0; 0.5 μg/kg i.v. IL-31 challenge days 7, 21, 28
Description: The efficacy of the fully felinized anti feline IL-31 mAb ZTS-361 was assessed for its ability to neutralize pruritic behavior in an IL-31 induced in vivo cat model. […] As shown in this graph, the variance of pruritic behavior scored for both T01 and T02 groups prior to IL-31 challenge varied little with the number of pruritic events observed between 0 and 10 within the 30 minute observation period. This study differed from the preliminary feline challenge model described above in section 1.13 in that on day zero cats were dosed with 4 mg/kg ZTS-361 subcutaneously without combination with feline IL-31 to generate a pre-bound complex. This represents a more rigorous assessment of efficacy as antibody ZTS-361 will be in circulation for seven days prior to the first IL-31 challenge requiring the antibody to have sufficient exposure to bind and neutralize circulating IL-31.
For this study, pruritic behavior was assessed on days 7, 21, and 28 for 1 hour following a 0.5 μg/kg intravenous challenge of the IL-31 protein.
Target sequence in this assay (as listed by the source): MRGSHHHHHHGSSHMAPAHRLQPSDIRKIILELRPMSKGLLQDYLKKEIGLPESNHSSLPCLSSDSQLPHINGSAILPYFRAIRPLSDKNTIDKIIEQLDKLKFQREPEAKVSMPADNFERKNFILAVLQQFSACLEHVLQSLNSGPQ

[4] = tested on: feline IL-31; assay: Inhibition of feline IL-31 induced pSTAT3 signaling in canine DH-82 cells; format: cell-based; details: feline IL-31, pSTAT3, canine DH82 cells (FIG. 3)
Description: (§2) To identify candidates with inhibitory activity, antibodies were assessed for their ability to affect IL-31-mediated STAT3 phosphorylation in either a canine or feline cell-based assay. STAT3 phosphorylation was determined in canine DH-82 (ATCC® CRL-10389™) or feline FCWF4 macrophage-like cells (ATCC CRL-2787). DH82 and FCWF4 cells were primed with canine interferon gamma (R&D Systems, Minneapolis, Minn.) at 10 ng/mL for 24 hours or feline interferon gamma (R&D Systems, Minneapolis, Minn.) at 125 ng/mL for 96 hours, respectively, to increase receptor expression. Both cell types were serum starved for 2 hours prior to IL-31 and mAb treatment. Using two independent methods, all candidate mAbs were evaluated for their ability to inhibit either 1 μg/mL canine or 0.2 μg/mL feline IL-31 induced STAT3 phosphorylation. […] To ensure complex formation, a one hour co-incubation of mAb and IL-31 cytokine prior to cell stimulation was completed. IL-31 cell stimulation was carried out for five minutes. STAT3 phosphorylation was measured using AlphaLISA SureFire ULTRA™ technology (Perkin Elmer, Waltham, Mass.). In the case where antibody concentration and purity are unknown, hybridoma supernatants were qualitatively measured for their ability to inhibit STAT3 phosphorylation following a 1 hour co-incubation with […] IL-31. The potency of individual monoclonal antibodies defined by their ability to inhibit IL-31 mediated STAT3 phosphorylation in these assays was considered the key selection criteria for further advancement of select antibodies. The term potency refers to the IC50 value calculated from these assays and is the concentration of the antibody where signaling induced by IL-31 is reduced to one half its maximal value.
Target sequence in this assay (as listed by the source): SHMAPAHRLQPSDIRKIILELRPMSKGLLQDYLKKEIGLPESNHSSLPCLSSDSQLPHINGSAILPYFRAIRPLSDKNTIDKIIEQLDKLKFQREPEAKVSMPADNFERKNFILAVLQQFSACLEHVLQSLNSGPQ

[5] = tested on: feline IL-31; assay: Inhibition of feline IL-31 induced pSTAT3 signaling in feline FCWF4 macrophage-like cells; format: cell-based; details: 0.2 μg/mL feline IL-31, pSTAT3, FCWF4 cells (FIG. 3)
Description: as §2

[6] = target: T1, canine IL-31 (Canis lupus familiaris, UniProt A0A8I3S3D1); assay: Inhibition of canine IL-31 induced pSTAT3 signaling in canine DH-82 and feline FCWF4 cells; format: cell-based; details: canine IL-31; canine and feline cell types, cell type of the values not specified
T1 construct: made in house; host or cells: CHO cells (CHROMOS ACE system)
T1 sequence (A0A8I3S3D1 24-159): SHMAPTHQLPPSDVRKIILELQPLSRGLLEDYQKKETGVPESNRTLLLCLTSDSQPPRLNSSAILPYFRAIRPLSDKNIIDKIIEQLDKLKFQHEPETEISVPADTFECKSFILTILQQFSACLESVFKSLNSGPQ
Description: as §2

[7] = tested on: feline 15H05 mutant IL-31; assay: Biacore binding, single test concentration of antibody, feline 15H05 mutant IL-31 surface
Description: (§3) For the indirect ELISA, binding (ELISA OD) to wildtype feline IL-31 and a feline IL-31 15H05 mutant which had mutations in the monoclonal antibody 15H05 epitope region was assessed. To confirm binding, biacore analysis was performed using canine, feline, equine, human, the feline 15H05 mutant, and feline 11E12 mutant IL-31 proteins as surfaces and a single test concentration of antibody. The feline IL-31 11E12 mutant had mutations in the monoclonal antibody 11E12 epitope region.
(§4) For the indirect ELISA method, antibody binding to wildtype and feline IL-31 15H05 mutant proteins was assessed. […] In comparison, the 11E12 antibody bound to the wild-type feline IL-31 and its binding was not impacted by the mutations in the 15H05 epitope region as evidenced by the data in FIG. 4. To confirm binding, biacore analysis was performed using canine, feline, equine, human, feline 15H05 mutant, and feline 11E12 mutant IL-31 proteins as surfaces and a single test concentration of antibody. Similar to ELISA observations, all antibodies tested bound to wildtype feline IL-31. In agreement with the data described above in this section, mouse antibodies 11 E12 and 15H05 both bound to canine and feline IL-31 surfaces. […] From this group of nine fully canine antibodies, only ZIL1 and ZIL9 cross-reacted with equine IL-31. Of note, antibody 15H05 was the only one of all assayed herein that bound to canine, feline, and equine IL-31 indicating some level of epitope conservation across the three species. In contrast, none of the antibodies described herein bound to human IL-31. Additional biacore surfaces were used to verify ELISA observations showing differential binding of antibodies to wildtype feline IL-31 and two proteins with mutations in the 15H05 (15H05 mutant) or 11 E12 (11E12 mutant) epitopes. […] Differing results can be attributed to differences in the two assay methodologies.

[8] = target: canine IL-31; assay: Affinity of anti-IL-31 antibodies by surface plasmon resonance (Biacore), canine IL-31 surface; format: binding; details: IL-31 conjugated to the surface (FIG. 2)
canine IL-31, sequence (as listed by the source): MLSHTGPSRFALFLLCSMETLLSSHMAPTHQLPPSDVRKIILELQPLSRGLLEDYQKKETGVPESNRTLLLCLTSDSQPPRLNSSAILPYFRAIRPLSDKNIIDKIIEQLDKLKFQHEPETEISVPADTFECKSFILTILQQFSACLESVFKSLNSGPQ
Method in brief: as §1

[9] = tested on: canine IL-31; assay: Competition binding assessment using Biacore, canine IL-31 surface; details: sequential addition of 15H05 and 11E12, Biacore
Description: (§5) To further characterize the IL-31 epitopes bound by mAbs 15H05 and 11 E12, blocking experiments were performed using biacore where the surface containing the IL-31 protein was generated followed by sequential addition of antibodies. FIGS. 7A and 7B show the relative binding of each antibody to IL-31 following capture of 11E12 or 15H05. The columns labeled HBS-EP (assay buffer) indicate the maximum signal obtained from each antibody binding to the IL-31 surface alone without competition. […] The sensograms related to FIG. 7A show the disassociation kinetics of both antibodies are very slow on this newly formed biacore surface therefore no additional occupation of binding sites can occur with addition of the same antibody (data not shown).

[10] = tested on: feline IL-31 11E12 mutant; assay: Indirect ELISA, binding to feline IL-31 11E12 mutant; details: compared with wildtype
feline IL-31 11E12 mutant, sequence (as listed by the source, change not shown): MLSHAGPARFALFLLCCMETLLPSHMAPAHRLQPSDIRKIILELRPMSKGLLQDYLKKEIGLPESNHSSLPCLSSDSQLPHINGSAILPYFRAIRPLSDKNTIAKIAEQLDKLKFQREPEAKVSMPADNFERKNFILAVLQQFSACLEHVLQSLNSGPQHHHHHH
Source text: To determine the impact of mAbs 11E12 and 15H05 ability to bind these mutant forms of feline IL-31, an indirect ELISA was run using the mutants directly coated on to an immunoassay plate. […] The minor attenuation of mAb 15H05s binding to the 11E12 mutant is likely due to translational effects of the mutations from movement of the two front helices effecting the 15H05 binding site. The mutations designed to affect mAb 15H05s binding (mutant 15H05) show a complete loss of mAb 1505s ability to bind this IL-31 mutant by ELISA. Unlike the 11E12 mutant, the changes in the random coil recognized by mAb 15H05 (mutant 15H05) had no impact on mAb 11E12 binding further supporting the distinction between the two epitopes (FIG. 6C).

[11] = tested on: wildtype feline IL-31; assay: Biacore binding, single test concentration of antibody, feline IL-31 surface
Description: as §3
For the indirect ELISA method, antibody binding to wildtype and feline IL-31 15H05 mutant proteins was assessed. […] In comparison, the 11E12 antibody bound to the wild-type feline IL-31 and its binding was not impacted by the mutations in the 15H05 epitope region as evidenced by the data in FIG. 4. To confirm binding, biacore analysis was performed using canine, feline, equine, human, feline 15H05 mutant, and feline 11E12 mutant IL-31 proteins as surfaces and a single test concentration of antibody. Similar to ELISA observations, all antibodies tested bound to wildtype feline IL-31. In agreement with the data described above in this section, mouse antibodies 11 E12 and 15H05 both bound to canine and feline IL-31 surfaces. […] From this group of nine fully canine antibodies, only ZIL1 and ZIL9 cross-reacted with equine IL-31. […]

[12] = tested on: canine IL-31; assay: Biacore binding, single test concentration of antibody, canine IL-31 surface
Description: as §3, §4

[13] = tested on: wildtype feline IL-31; assay: Indirect ELISA, binding to wildtype feline IL-31
Method in brief: (§6)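 Wildtype or 15H05-epitope-mutant feline IL-31 coated directly onto plates as capture antigen (50 ng/well). Antibodies diluted in PBST, bound antibody detected with HRP-labelled secondary and TMB for 10 min at RT. Reaction stopped with 0.1 N HCl, then OD read at 450 nm.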

[14] = tested on: feline IL-31; assay: Competition binding assessment using Biacore, feline IL-31 surface; details: sequential addition of 15H05 and 11E12, Biacore
Description: as §5
Binding of additional antibody in the presence of the same antibody is a result of the increased off rate due to the poorer quality of the surface used. Increased off rates can be seen and compared to the KD values from newly formed feline IL-31 surfaces in FIG. 2.

[15] = tested on: feline 11E12 mutant IL-31; assay: Biacore binding, single test concentration of antibody, feline 11E12 mutant IL-31 surface
Description: as §3, §4

[16] = tested on: feline IL-31 15H05 mutant; assay: Indirect ELISA, binding to feline IL-31 15H05 mutant; details: compared with wildtype
feline IL-31 15H05 mutant, sequence (as listed by the source, change not shown): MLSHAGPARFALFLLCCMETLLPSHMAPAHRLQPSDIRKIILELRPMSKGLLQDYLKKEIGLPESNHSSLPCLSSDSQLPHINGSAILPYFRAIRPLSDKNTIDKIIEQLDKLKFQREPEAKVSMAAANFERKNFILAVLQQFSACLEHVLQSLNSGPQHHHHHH
Method in brief: as §6

Molecule	binding of mouse anti equine IL-31 serum to mimotope ([1]; biotin peptide on streptavidin pins, 120 seconds association)	binding of control mouse serum to mimotope ([1]; serum of a mouse vaccinated with an unrelated protein)	affinity (KD) to feline IL-31 [2]	reduction in pruritus compared to vehicle placebo control [3]	potency (IC50) against feline IL-31 in canine DH82 cells [4]	potency (IC50) against feline IL-31 in feline FCWF4 cells [5]	IC50 against canine IL-31 [6]	binding to feline 15H05 mutant IL-31 (Biacore) [7]	affinity (KD) to canine IL-31 [8]	competition binding on canine IL-31 [9]	binding to feline IL-31 11E12 mutant (ELISA) [10]	binding to wildtype feline IL-31 (Biacore) [11]	binding to canine IL-31 (Biacore) [12]	binding to wildtype feline IL-31 (ELISA) [13]	competition binding on feline IL-31 [14]	binding to feline 11E12 mutant IL-31 (Biacore) [15]	binding to feline IL-31 15H05 mutant (ELISA) [16]
A helix: biotin GSG equine IL-31 mimotope N-GPIYQLQPKEIQAIIVELQNLSKK-C (Biotin-GSGGPIYQLQPKEIQAIIVELQNLSKK)	recognized as relevant immunogens	some dilution dependent signal															
B1			highly consistent with that of the mouse and chimeric form	significant reduction in pruritus	highly consistent with values derived from the chimeric and mouse form	highly consistent with values derived from the chimeric and mouse form	proportionally higher										
B2			high affinity		comparable	comparable		bound	high affinity	capable of binding to canine IL-31 in the presence of one another	highly attenuated	bound	bound	bound; also recorded: capable of binding	no overlap in the epitope recognized	did not bind	not impacted; also recorded: no impact

Source: patent US11433139B2, “Peptide vaccines against interleukin-31” (Zoetis Services LLC, priority 2018, dated 2022)
